Reference: US9950027 (TXP PHARMA, dated 2018)
Where two headings read alike, the source gives them in different places. Side-chain parts run from the residue outwards. [ ]: non-standard residue; d: D form. Ac‑(Lys-Ac)Lys‑Lys = branched amino acid probe attached to the ε-amino group of the lysine

What was measured:
[1] = target: T1, MC3r (human recombinant, CHO cells) (human, UniProt P41968 1-323); assay: displacement of 125I-NDP-αMSH, human recombinant CHO cells expressing MC3r
T1 construct: whole, on cells
Description: (§1) Murine B16-F1 cells expressing MCr1 are used for determination of binding affinity to and agonist activity against the MC1r. Human recombinant CHO cells expressing MC3r, MC4r or MC5r are used for determination of affinity to or agonist activity against the MC3r, MC4r and MC5r, respectively. […] The test items are tested in a concentration range of 10^-13 to 10^-5M.

[2] = target: T2, MC1r (murine B16-F1 cells) (murine, UniProt Q01727 1-315); assay: displacement of 125I-NDP-αMSH, murine B16-F1 cells expressing MC1r
T2 construct: whole, on cells; also called MCr1
Description: as §1

[3] = target: T1, MC3r (human recombinant, CHO cells); assay: cell-based or functional assay
[4] = target: T3, MC4r (human recombinant, CHO cells) (human, UniProt P32245 1-332); assay: cell-based or functional assay
[5] = target: T4, MC5r (human recombinant, CHO cells) (human, UniProt P33032 1-325); assay: cell-based or functional assay
[6] = target: T2, MC1r (murine B16-F1 cells); assay: cell-based or functional assay
[7] = target: T3, MC4r (human recombinant, CHO cells); assay: displacement of 125I-NDP-αMSH, human recombinant CHO cells expressing MC4r
Description: as §1

[8] = target: T4, MC5r (human recombinant, CHO cells); assay: displacement of 125I-NDP-αMSH, human recombinant CHO cells expressing MC5r
Description: as §1

[9] = target: T4, MC5r (human recombinant, CHO cells); assay: displacement of 125I-NDP-αMSH, CHO cells expressing human MC5r; affinity as a multiple of αMSH's
Description: as §1

[10] = target: T2, MC1r (murine B16-F1 cells); assay: displacement of 125I-NDP-αMSH, murine B16-F1 cells expressing MC1r; affinity as a multiple of αMSH's
Description: as §1

[11] = target: T1, MC3r (human recombinant, CHO cells); assay: displacement of 125I-NDP-αMSH, CHO cells expressing human MC3r (method of Example 2, not restated)
Description: as §1

[12] = target: T4, MC5r (human recombinant, CHO cells); assay: displacement of 125I-NDP-αMSH, CHO cells expressing human MC5r (method of Example 2, not restated)
Description: as §1

[13] = target: T2, MC1r (murine B16-F1 cells); assay: displacement of 125I-NDP-αMSH, murine B16-F1 cells expressing MC1r (method of Example 2, not restated)
Description: as §1

[14] = target: T3, MC4r (human recombinant, CHO cells); assay: cell-based or functional assay; remark: listed apart in the source
[15] = target: T4, MC5r (human recombinant, CHO cells); assay: cell-based or functional assay; remark: listed apart in the source
[16] = target: T2, MC1r (murine B16-F1 cells); assay: cell-based or functional assay; remark: listed apart in the source
[17] = target: T3, MC4r (human recombinant, CHO cells); assay: displacement of 125I-NDP-αMSH, CHO cells expressing human MC4r (method of Example 2, not restated)
Description: as §1

[18] = target: T5, human GLP-2 receptor (human, UniProt O95838 1-553); assay: cell-based or functional assay
T5 sequence (looked up): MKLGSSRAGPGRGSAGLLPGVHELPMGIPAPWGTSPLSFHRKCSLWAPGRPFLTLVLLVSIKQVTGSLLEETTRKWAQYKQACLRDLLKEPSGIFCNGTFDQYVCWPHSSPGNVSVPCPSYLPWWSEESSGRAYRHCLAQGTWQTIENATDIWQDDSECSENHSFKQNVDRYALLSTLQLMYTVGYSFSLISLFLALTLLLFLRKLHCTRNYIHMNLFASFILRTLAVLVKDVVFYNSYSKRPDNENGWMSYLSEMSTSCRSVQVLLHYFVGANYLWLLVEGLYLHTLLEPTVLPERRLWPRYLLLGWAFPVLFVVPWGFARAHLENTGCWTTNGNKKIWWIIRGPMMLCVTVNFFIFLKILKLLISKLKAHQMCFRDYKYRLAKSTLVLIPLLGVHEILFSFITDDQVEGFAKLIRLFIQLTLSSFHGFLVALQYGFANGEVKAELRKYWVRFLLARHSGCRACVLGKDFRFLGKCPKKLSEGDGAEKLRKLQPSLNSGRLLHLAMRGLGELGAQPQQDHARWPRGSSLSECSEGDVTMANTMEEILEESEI

[19] = target: T6, recombinant human type 2 Formyl peptide receptor (FPR2) (human, UniProt P25090 1-351); assay: cell-based or functional assay
T6 sequence (looked up): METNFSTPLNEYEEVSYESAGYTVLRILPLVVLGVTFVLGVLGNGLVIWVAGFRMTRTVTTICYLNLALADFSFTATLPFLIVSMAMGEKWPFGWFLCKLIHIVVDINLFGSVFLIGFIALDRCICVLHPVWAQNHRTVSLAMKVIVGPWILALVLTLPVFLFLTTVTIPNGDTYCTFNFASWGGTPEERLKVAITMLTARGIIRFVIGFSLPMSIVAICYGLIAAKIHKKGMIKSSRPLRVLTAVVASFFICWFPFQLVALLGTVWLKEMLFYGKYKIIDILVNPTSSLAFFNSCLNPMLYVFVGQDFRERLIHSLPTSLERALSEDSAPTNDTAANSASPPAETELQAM

[20] = target: T3, MC4r (human recombinant, CHO cells); assay: displacement of 125I-NDP-αMSH, CHO cells expressing human MC4r; affinity as a multiple of αMSH's
Description: as §1

[21] = target: T1, MC3r (human recombinant, CHO cells); assay: displacement of 125I-NDP-αMSH, CHO cells expressing human MC3r; affinity as a multiple of αMSH's
Description: as §1

[22] = target: T2, MC1r (murine B16-F1 cells); assay: radioligand binding, murine B16-F1 cells expressing MC1r; affinity as a multiple of αMSH's
[23] = target: T1, MC3r (human recombinant, CHO cells); assay: radioligand binding, CHO cells expressing human MC3r; affinity as a multiple of αMSH's
[24] = target: T3, MC4r (human recombinant, CHO cells); assay: radioligand binding, CHO cells expressing human MC4r; affinity as a multiple of αMSH's

T1 sequence (P41968 whole entry): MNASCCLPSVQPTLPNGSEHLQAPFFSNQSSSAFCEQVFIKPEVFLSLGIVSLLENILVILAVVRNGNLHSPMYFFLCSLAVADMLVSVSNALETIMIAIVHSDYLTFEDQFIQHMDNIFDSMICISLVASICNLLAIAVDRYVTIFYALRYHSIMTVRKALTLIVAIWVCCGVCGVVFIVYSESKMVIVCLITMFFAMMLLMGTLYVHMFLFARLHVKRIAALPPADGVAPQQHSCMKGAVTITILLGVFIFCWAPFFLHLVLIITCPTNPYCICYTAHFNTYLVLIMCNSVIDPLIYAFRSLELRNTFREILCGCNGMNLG
T4 sequence (P33032 whole entry): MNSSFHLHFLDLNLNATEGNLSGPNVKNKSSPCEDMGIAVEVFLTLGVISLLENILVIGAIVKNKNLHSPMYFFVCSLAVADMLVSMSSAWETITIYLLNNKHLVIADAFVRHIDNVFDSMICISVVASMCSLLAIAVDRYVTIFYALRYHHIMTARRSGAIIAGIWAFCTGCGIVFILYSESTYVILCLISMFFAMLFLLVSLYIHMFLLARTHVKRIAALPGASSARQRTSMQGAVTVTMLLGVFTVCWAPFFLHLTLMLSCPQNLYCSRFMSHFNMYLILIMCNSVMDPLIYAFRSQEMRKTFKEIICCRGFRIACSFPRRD
T2 sequence (Q01727 whole entry): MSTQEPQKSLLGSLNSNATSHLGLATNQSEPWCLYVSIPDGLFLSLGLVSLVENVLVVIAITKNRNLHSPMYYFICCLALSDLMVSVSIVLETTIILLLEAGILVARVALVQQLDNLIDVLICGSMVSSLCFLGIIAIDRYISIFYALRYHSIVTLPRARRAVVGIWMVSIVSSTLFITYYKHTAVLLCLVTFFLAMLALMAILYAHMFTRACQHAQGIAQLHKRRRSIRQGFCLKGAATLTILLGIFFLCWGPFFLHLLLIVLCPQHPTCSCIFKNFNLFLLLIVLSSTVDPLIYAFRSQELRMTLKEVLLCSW
T3 sequence (P32245 whole entry): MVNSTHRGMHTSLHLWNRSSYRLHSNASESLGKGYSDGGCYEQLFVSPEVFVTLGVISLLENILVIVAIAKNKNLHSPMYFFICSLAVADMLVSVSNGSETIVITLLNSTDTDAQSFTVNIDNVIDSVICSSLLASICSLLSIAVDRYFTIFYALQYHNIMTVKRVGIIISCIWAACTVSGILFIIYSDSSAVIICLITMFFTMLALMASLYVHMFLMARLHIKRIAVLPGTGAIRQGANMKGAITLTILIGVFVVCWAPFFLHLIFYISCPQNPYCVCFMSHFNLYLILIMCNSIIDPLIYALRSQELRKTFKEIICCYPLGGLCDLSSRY

B1: α-MSH Analogue 1: Ac-(Ac-Lys-Lys)Lys-Ser-Tyr-Ser-Met-Glu-His-Phe-Arg-Trp-Gly-Lys-Pro-Val-NH2 (peptide)
peptide: KSYSMEHFRWGKPV
modifications: alpha-amino group of Lys1 acetylated; Ac-Lys-Lys attached to the epsilon-amino group of Lys1 (branched amino acid probe Ac-(Ac-Lys-Lys)Lys-); C-terminal amide
Ki [1]: 24 nM | Ki [2]: 1.2 nM | EC50, cAMP accumulation (agonist activity) [3]: 53 nM | EC50, cAMP accumulation (agonist activity) [4]: 18 nM | EC50, cAMP accumulation (agonist activity) [5]: 625 nM | EC50, cAMP accumulation (agonist activity) [6]: 8.9 nM | Ki [7]: 26 nM | Ki [8]: 193 nM | MCr binding relative to Control peptide 1 (αMSH) [9]: 2 fold | MCr binding relative to Control peptide 1 (αMSH) [10]: 4 fold

B2: γ-MSH Analogue 1: Ac-(Ac-Lys-Lys)Lys-Tyr-Val-Met-Gly-His-Phe-Arg-DTrp-Asp-Arg-Phe-Gly-NH2 (peptide)
peptide: KYVMGHFRWDRFG
modifications: alpha-amino group of Lys1 acetylated; Ac-Lys-Lys attached to the epsilon-amino group of Lys1; D-Trp at position 9; C-terminal amide
Ki [11]: 15 nM | Ki [12]: 215 nM | Ki [13]: 3.8 nM | EC50, cAMP accumulation (agonist activity) [14]: 252 nM | EC50, cAMP accumulation (agonist activity) [15]: 555 nM | EC50, cAMP accumulation (agonist activity) [16]: 68 nM | Ki [17]: 150 nM

H-HADGSFSDEMNTILDNLAARDFINWLIQTKITDR-OH [GLP-2 (1-34) control peptide: …]
EC50 (nM), cAMP production (HTRF) [18]: 0.36 nM

Ac-AMVSEFLK(Ac‑(Lys-Ac)Lys‑Lys)QAW-NH2
EC50, agonist activity (aequorin light emission) [19]: 1560 nM

B3: Analogue 2 (Example 2): Ac-(Ac-Lys-Lys)Lys-Ser-Tyr-Ser-Met-Glu-His-Phe-Arg-Trp-Gly-Lys-Pro-(D-Val)-NH2 (peptide)
peptide: KSYSMEHFRWGKPV
modifications: alpha-amino group of Lys1 acetylated; Ac-Lys-Lys attached to the epsilon-amino group of Lys1; D-Val at position 14; C-terminal amide
notes: BAP-modified α-MSH analogue
MCr binding relative to Control peptide 1 (αMSH) [20]: 8.5 fold | MCr binding relative to Control peptide 1 (αMSH) [21]: 3.3 fold

B4: Analogue 3 (Example 2): Ac-(Ac-Lys-Lys)Lys-Ser-Tyr-Ser-Nle-Glu-His-DPhe-Arg-Trp-Gly-Lys-Pro-Val-NH2 (peptide)
peptide: KSYSXEHFRWGKPV
modifications: alpha-amino group of Lys1 acetylated; Ac-Lys-Lys attached to the epsilon-amino group of Lys1; Nle at position 5 (written X); D-Phe at position 8; C-terminal amide
notes: BAP-modified α-MSH analogue; X = norleucine
MCr binding relative to Control peptide 1 (αMSH) [20]: 47 fold | MCr binding relative to Control peptide 1 (αMSH) [21]: 41 fold

Ac-K([Lys-Lys-Ac])SSIISH[dF]RWGKPV-NH2 (BAP-modified α-MSH analogue) [Analogue 4 (Example 2): Ac-(Ac-Lys-Lys)Lys-Ser-Ser-Ile-Ile-Ser-His-DPhe-Arg-Trp-Gly-Lys-Pro-Val-NH2]
MCr binding relative to Control peptide 1 (αMSH) [20]: 53 fold | MCr binding relative to Control peptide 1 (αMSH) [10]: 9.4 fold | MCr binding relative to Control peptide 1 (αMSH) [21]: 42 fold

B5: Analogue 5 (Example 3): Ac-(Ac-Lys-Lys)Lys-Tyr-Val-Nle-Gly-His-Phe-Arg-DTrp-Asp-Arg-Phe-Gly-NH2 (peptide)
peptide: KYVXGHFRWDRFG
modifications: alpha-amino group of Lys1 acetylated; Ac-Lys-Lys attached to the epsilon-amino group of Lys1; Nle at position 4 (written X); D-Trp at position 9; C-terminal amide
notes: BAP-modified γ-MSH analogue; X = norleucine
MCr binding affinity relative to αMSH [22]: 1.9 fold | MCr binding affinity relative to αMSH [23]: 38 fold | MCr binding affinity relative to αMSH [24]: 2.8 fold

B6: Analogue 6 (Example 3): Ac-(Ac-Lys-Lys)Lys-Tyr-Val-Nle-Gly-His-Phe-Arg-Trp-Asp-Arg-Phe-Gly-NH2 (peptide)
peptide: KYVXGHFRWDRFG
modifications: alpha-amino group of Lys1 acetylated; Ac-Lys-Lys attached to the epsilon-amino group of Lys1; Nle at position 4 (written X); C-terminal amide
notes: as for B5
MCr binding affinity relative to αMSH [23]: 4.6 fold | MCr binding affinity relative to αMSH [24]: 2.9 fold

B7: Analogue 7 (Example 3): Ac-(Ac-Lys-Lys)Lys-Tyr-Val-Nle-Gly-His-DPhe-Arg-Trp-Asp-Arg-Phe-Gly-NH2 (peptide)
peptide: KYVXGHFRWDRFG
modifications: alpha-amino group of Lys1 acetylated; Ac-Lys-Lys attached to the epsilon-amino group of Lys1; Nle at position 4 (written X); D-Phe at position 7; C-terminal amide
notes: as for B5
MCr binding affinity relative to αMSH [23]: 46 fold | MCr binding affinity relative to αMSH [24]: 37 fold

B8: Analogue 8 (Example 3): Ac-(Ac-Lys-Lys)Lys-Tyr-Val-Nle-Gly-His-DPhe-Arg-DTrp-Asp-Arg-Phe-Gly-NH2 (peptide)
peptide: KYVXGHFRWDRFG
modifications: alpha-amino group of Lys1 acetylated; Ac-Lys-Lys attached to the epsilon-amino group of Lys1; Nle at position 4 (written X); D-Phe at position 7; D-Trp at position 9; C-terminal amide
notes: as for B5
MCr binding affinity relative to αMSH [22]: 7.3 fold | MCr binding affinity relative to αMSH [23]: 37 fold | MCr binding affinity relative to αMSH [24]: 10.7 fold
